The record followed here is US20230374068A1, “COMPOSITIONS AND METHODS FOR TREATING A DISEASE” (RAMOT AT TEL AVIV UNIVERSITY LTD., priority 2021, published 2023).

B2: GFP-RILP (mouse RILP in pEGFP-C1) (other, UniProt Q5ND29 1-369, looked up)
chain: MEPRRAAPRLPSQASSSVGAGSAAELVYHLAGALGTELQGLARRFGPDAAAGLVPLVVRALELLEKAAVGPAPDSLQVSAQQAEVELRRLREENQRLRQELGSGPQEERALLRQLKEVTDRQRDELRAHNRDLQRRSQETEALQEQLQRLLLINSELRHKLAAVQTQLRAAQDRERERQIAQDGSSQLAKEQSLEPDAATSDDPVDTQKQPGNLPEAVQCGFSREELKQILQERNELKANVFLLKEELAYFQRELLTDHRVPGLLLEAMKVAVKKQRRKIKAKMLGTPEEAESSEDEDGSWLLLSNDKEDVPLVPESRIQNFFGLWYRGETEAPEAETSNPASSSLQKGEETPQQPHLQPVNSPPAPNS
notes: Expressed in transfected RBL cells; tested in cell lysate; also called GFP-fused RILP; pEGFP-C1-RILP; not shown: EGFP of the pEGFP-C1 vector

Test [1] deals with T1, T7-RILP(L231A) (pEF-T7-RILP(L231A)) (mouse, UniProt Q5ND29 1-369).
T1 construct: RHD mutant; expressed in transfected RBL cells
T1 sequence (looked up): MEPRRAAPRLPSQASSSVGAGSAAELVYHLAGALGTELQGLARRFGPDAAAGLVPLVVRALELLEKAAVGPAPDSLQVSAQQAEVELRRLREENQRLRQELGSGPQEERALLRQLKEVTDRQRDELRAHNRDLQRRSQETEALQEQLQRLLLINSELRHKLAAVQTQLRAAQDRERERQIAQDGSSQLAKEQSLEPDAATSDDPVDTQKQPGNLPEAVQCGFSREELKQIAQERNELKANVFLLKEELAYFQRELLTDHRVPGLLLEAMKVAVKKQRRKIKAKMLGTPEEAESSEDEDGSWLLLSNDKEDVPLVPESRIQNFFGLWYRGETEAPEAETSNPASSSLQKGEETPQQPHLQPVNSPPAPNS
The test is described as follows: cell-based or functional assay.

Test [2] has as its target T7-RILP (pEF-T7-RILP) (mouse) (UniProt Q5ND29). The test is described as follows: cell-based or functional assay.
Test [3] addresses T1, T7-RILP(L231A) (pEF-T7-RILP(L231A)). Briefly: GST-Rab12 pulldown from RBL cell lysates with GTPgammaS, anti-T7 immunoblot. As to the method:
(§1) Bound proteins were eluted by sample buffer, and analyzed by SDS-PAGE and immunoblotting, using monoclonal antibodies directed against T7. Input=10% of total protein. A representative blot is shown. […] The results are the average pulldown±SEM derived from three independent experiments. *P[(T7-RILP/T7-RILP(L231A)]=0.0480, *P[T7-RILP/T7-RILP(E233A)]=0.0498.
(§2) Pulldown assays were performed as previously described 2. Briefly, 20 μg of GST fusion proteins or control GST immobilized on Glutathione Agarose beads were incubated for 18 hours at 4° C. with RBL cell lysates (500 μg) prepared in buffer C (50 mM Hepes pH 7.4, 150 mM NaCl, 1 mM MgCl₂, 1% TritonX100, 1 mM PMSF, protease inhibitor mixture, 2 mM Na₃VO₄) in the presence of 0.5 mM GTPγS. At the end of the incubation period, beads were sedimented by centrifugation at 5000×g for 5 minutes at 4° C., washed 4 times in buffer C with 0.2% TritonX100, and finally suspended in sample buffer, boiled for 7 minutes, and subjected to SDS-PAGE and immunoblotting. In pulldown experiments of endogenous phosphoRab12, cell lysates were prepared in buffer D (50 mM Hepes pH 7.4, 150 mM NaCl, 1 mM MgCl₂, 1% TritonX100, 1 mM PMSF, protease inhibitor mixture, 2 mM Na₃VO₄, 10 mM NaPPi and 80 mM β-glycerophosphate) and the pulldown assay was conducted in the absence of GTPγS. Beads were washed in buffer D with 0.2% TritonX100.

The target in test [4] is T2, T7-RILP(E233A) (pEF-T7-RILP(E233A)) (mouse, UniProt Q5ND29 1-369).
T2 construct: RHD mutant; expressed in transfected RBL cells
T2 sequence (looked up): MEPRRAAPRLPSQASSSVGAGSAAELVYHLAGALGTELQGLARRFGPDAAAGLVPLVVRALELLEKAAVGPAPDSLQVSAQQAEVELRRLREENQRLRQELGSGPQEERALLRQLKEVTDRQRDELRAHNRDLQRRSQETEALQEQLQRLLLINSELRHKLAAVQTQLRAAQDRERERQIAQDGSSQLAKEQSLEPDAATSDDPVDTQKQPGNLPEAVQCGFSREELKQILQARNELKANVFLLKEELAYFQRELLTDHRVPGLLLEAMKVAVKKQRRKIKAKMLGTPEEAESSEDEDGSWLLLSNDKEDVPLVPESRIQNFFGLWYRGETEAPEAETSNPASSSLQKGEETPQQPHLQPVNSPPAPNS
The test is described as above. The procedure: as §1, §2

The target in test [5] is T3, T7-RILP-L1 (pEF-T7-RILP-L1) (mouse, UniProt Q9JJC6 1-406).
T3 construct: The pEF-T7 plasmid was 'prepared as previously described'; also called T7-tagged RILP-L1; RILP-like 1
T3 sequence (looked up): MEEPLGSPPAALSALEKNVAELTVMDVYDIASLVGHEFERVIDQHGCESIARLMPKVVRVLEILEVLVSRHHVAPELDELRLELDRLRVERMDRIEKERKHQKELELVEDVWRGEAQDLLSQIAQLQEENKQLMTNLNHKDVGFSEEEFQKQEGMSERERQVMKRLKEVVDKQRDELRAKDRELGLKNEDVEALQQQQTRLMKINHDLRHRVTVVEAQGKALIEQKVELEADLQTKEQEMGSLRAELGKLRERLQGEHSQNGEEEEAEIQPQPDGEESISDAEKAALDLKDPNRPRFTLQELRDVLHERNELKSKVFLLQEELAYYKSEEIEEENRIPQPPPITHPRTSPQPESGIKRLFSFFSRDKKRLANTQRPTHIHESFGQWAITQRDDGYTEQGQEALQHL
Briefly: co-immunoprecipitation from co-transfected RBL cell lysates, IP anti-GFP, blot anti-T7. The procedure: (§3) FIGS. 1A, 1B show the results of immunoprecipitations in which cell lysates derived from the rat mast cell line RBL-2H3, herein referred to as RBL cells, that were co-transfected with 17.5 μg of pEGFP plasmid encoding either RILP, RILP-L1 or RILP-L2 and 17.5 μg of pEF plasmid encoding either T7-RILP, T7-RILP-L1 or T7-RILP-L2, as indicated, were subjected to immunoprecipitation with rabbit polyclonal antibodies directed against GFP. FIGS. 1C, 1D show the results of immunoprecipitations in which the RBL cell lysates described above were subjected to immunoprecipitation with mouse monoclonal antibodies directed against the T7 epitope. Immune complexes were then analyzed by SDS-PAGE and immunoblotting with mouse monoclonal anti T7 antibodies, followed by reprobing with polyclonal anti GFP antibodies (FIGS. 1A, 1B), or with polyclonal anti GFP antibodies followed by reprobing with monoclonal anti T7 antibodies (FIGS. 1C, 1D), as indicated. Input=10% of total protein.
(§4) RBL cell lysates (500 μg) prepared in buffer A (50 mM Hepes pH 7.4, 250 mM NaCl, 1 mM MgCl₂, 1% Triton X-100, protease inhibitor mixture, 1 mM PMSF, 2 mM Na₃VO₄) were incubated overnight at 4° C. with either rabbit polyclonal anti-GFP antibodies (2 μg) or mouse monoclonal anti-T7 antibodies (1 μg). Protein A/G-Sepharose (50% v/v) was then added for 1.5 h at 4° C. Immune complexes were collected, washed three times with buffer B (50 mM Hepes pH 7.4, 150 mM NaCl, 1 mM MgCl₂, 0.2% Triton X-100, protease inhibitor mixture, 1 mM PMSF, 2 mM Na₃VO₄), and resuspended in 1× sample buffer, and boiled for 7 min. Proteins were resolved by SDS-PAGE and analyzed by immunoblotting with the desired antibodies.

For test [6], the target named is T4, endogenous Rab12 of RBL cells (rat, UniProt P35284 49-291, limits assumed).
T4 construct: Total Rab12 pulled down from cell lysates (blot reprobed with anti-Rab12)
T4 sequence (looked up): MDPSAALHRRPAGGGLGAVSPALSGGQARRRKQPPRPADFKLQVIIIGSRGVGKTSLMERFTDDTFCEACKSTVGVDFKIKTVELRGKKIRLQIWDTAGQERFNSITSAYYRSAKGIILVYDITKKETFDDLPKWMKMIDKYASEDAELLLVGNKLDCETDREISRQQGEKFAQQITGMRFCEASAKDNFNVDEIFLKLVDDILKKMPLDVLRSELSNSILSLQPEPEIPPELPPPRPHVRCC
The test is described as follows: GST pulldown of endogenous Rab12 from RBL cell lysates, anti-Rab12 immunoblot. As to the method: Cells were then lysed and 500 μg of cell lysate were incubated overnight at 4° C. with either GST, GST-RILP, GST-RILP-L1 or GST-RILP-L2, immobilized on glutathione agarose beads, as indicated. At the end of the incubation period, beads were sedimented by centrifugation at 5000×g for 5 minutes at 4° C., washed four times with buffer containing 50 mM Hepes pH 7.4, 150 mM NaCl, 1 mM MgCl₂, 0.2% Triton X-100, protease inhibitor mixture, 1 mM PMSF, 2 mM Na₃VO₄, 10 mM NaPPi and 80 mM β-glycerophosphate and suspended in 1× sample buffer and boiled for 7 minutes. Proteins were resolved by SDS-PAGE and analyzed by immunoblotting with the anti-phosphoRab12 antibodies, followed by reprobing with anti Rab12 antibodies, as indicated. Representative blots are shown. Similar results were obtained in two separate experiments.
Next, it was assessed whether […] any impact on Rab12 interactions with its RILP family effectors. To this end, lysates derived from resting RBL cells or RBL cells that were triggered with either IgE/Ag or Ion/TPA, were subjected to pulldown assays by chimeric proteins consisting of GST-fused to either RILP, RILP-L1, or RILP-L2, or control GST. […] Therefore, under these conditions, the efficacy of Rab12-effector interactions was RILP-L1>RILP>>>RILP-L2.
Background: A western blot detects proteins with antibodies after separation by electrophoresis.

The target of test [7] is B2. Briefly: co-immunoprecipitation from co-transfected RBL cell lysates, IP anti-GFP, blot anti-T7. The procedure:
as §3, §4

The target in test [8] is T5, GFP-RILP-L1 (mouse RILP-like 1 in pEGFP-C1) (mouse, UniProt Q9JJC6 1-406).
T5 construct: Expressed in transfected RBL cells; tested in cell lysate; also called pEGFP-C1-RILP-L1; not shown: EGFP of the pEGFP-C1 vector
T5 sequence (looked up): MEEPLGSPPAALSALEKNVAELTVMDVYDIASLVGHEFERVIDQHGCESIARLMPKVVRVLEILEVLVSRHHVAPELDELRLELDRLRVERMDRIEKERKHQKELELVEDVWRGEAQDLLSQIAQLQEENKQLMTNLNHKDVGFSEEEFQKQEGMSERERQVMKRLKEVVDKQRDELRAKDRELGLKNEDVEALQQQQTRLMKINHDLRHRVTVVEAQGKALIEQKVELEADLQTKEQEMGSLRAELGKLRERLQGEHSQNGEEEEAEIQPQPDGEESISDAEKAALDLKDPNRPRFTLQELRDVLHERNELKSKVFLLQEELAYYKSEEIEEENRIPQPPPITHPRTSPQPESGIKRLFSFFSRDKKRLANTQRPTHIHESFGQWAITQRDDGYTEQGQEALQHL
The test is described as above. The procedure: as §3, §4

As for “GFP-Rab12 (pEGFP-C1-Rab12) (from UniProt P35283 49-291)”, in test [1], the incidence of cells with scattered secretory granules (NPY-mRFP), confocal microscopy of RBL cells is 97%. In test [2], this molecule gave an incidence of cells with perinuclear secretory granules (NPY-mRFP), confocal microscopy of RBL cells of 99%.

B1: GST-Rab12 (pGEX-4T-3-Rab12) (other, mouse, UniProt P35283 49-291, looked up)
chain: MDPSAALHRRPAGGSLGAVSPALSGGQARRRKQPPRPADFKLQVIIIGSRGVGKTSLMERFTDDTFCEACKSTVGVDFKIKTVELRGKKIRLQIWDTAGQERFNSITSAYYRSAKGIILVYDITKKETFDDLPKWMKMIDKYASEDAELLLVGNKLDCETDREISRQQGEKFAQQITGMRFCEASAKDNFNVDEIFLKLVDDILKKMPLDVLRNELSNSILSLQPEPEIPPELPPPRPHVRCC
notes: Immobilized on glutathione agarose beads; pulldown in the presence of 0.5 mM GTPgammaS; also called immobilized Rab12; not shown: glutathione S-transferase (GST) encoded by the pGEX-4T-3 vector
Take B1: the binding result in test [3] and in test [4] was “no binding” each time.
As to B2, in test [5], the binding result is reported as “no binding”.

B3: GST-RILP-L2 (pGEX-4T-3-RILP-L2) (other, mouse, UniProt Q99LE1 1-197, looked up)
chain: MEDHPVREEEDGEEDEGALAKSPLQLTTDDVYDISYVVGRELMALGSDPRVTRLQFKIVRVMEMLETLVNEGSLAVEELRMERDNLKQEVEGLRKAGVSGAQVNLGPDKMVVDLTDPNRPRFTLQELREVLQERNKLKSQLLLVQEELQCYRSGLLPPRETPGGRREKDAVVAMGNGEKEERTIMKKLFSFRSGKHT
notes: Immobilized on glutathione agarose beads; not shown: glutathione S-transferase (GST) encoded by the pGEX-4T-3 vector
With B3, the “fold increase in Rab12 pulldown, Ion/TPA-triggered against resting cells” value in test [6] came out at 4 fold.

B4: T7-RILP-L2 (pEF-T7-RILP-L2) (other, mouse, UniProt Q99LE1 1-197, looked up, not shown: small tags and cut ends)
chain: MEDHPVREEEDGEEDEGALAKSPLQLTTDDVYDISYVVGRELMALGSDPRVTRLQFKIVRVMEMLETLVNEGSLAVEELRMERDNLKQEVEGLRKAGVSGAQVNLGPDKMVVDLTDPNRPRFTLQELREVLQERNKLKSQLLLVQEELQCYRSGLLPPRETPGGRREKDAVVAMGNGEKEERTIMKKLFSFRSGKHT
notes: The pEF-T7 plasmid was 'prepared as previously described'; also called T7-tagged RILP-L2; RILP-like 2
B4: the binding result in test [7] and in test [8] was “no binding” in each case.
